Experimental data taken from the Human Domainome abundance scans (Beltran et al. 2025).

B1: Mineralocorticoid receptor, residues 600 to 675; numbered along this chain, P08235 (parent)
chain: SKICLVCGDEASGCHYGVVTCGSCKVFFKRAVEGQHNYLCAGRNDCIIDKIRRKNCPACRLQKCLQAGMNLGARKS

Variants of: B1
Experiment: abundance fitness (aPCA) (normalised: wild type 0, dead -1); higher = more abundant; growth selection in yeast, the domain comes from the species named
Settings: Homo sapiens

Abundance fitness: each site, then its substitutions
A41: L -0.103, M 0.052, W -0.127, F -0.277, K -0.149, R -0.021, N -0.079, S -0.077, T -0.048, Q -0.074, C -0.017, G 0.028, P -0.116, D 0.036, H -0.033, Y 0.001, E 0.129, V -0.053
N44: K 0.016, E -0.042, T -0.054, W -0.089, Q -0.038, P -0.391, H -0.045, G -0.004, L -0.16, M -0.081, D 0.071, F -0.075, I -0.342, Y -0.049, S -0.02, A -0.016, V -0.246
R43: F -0.045, G -0.006, W -0.067, I -0.025, K 0.029, Q -0.067, S -0.001, L -0.055, P -0.138, H -0.029, D -0.024, N -0.015, E 0.005, V -0.038, M 0.008, T -0.001
D45: Q 0.016, P -0.149, N -0.045, L -0.094, I -0.1, R -0.024, F -0.163, A -0.067, E 0.015, K -0.072, M -0.057, G -0.079
N37: K 0.031, A -0.027, I -0.058, T -0.029, P -0.083, E 0.068, F -0.264, G -0.061, R 0.01, H -0.051, C -0.036, D -0.02, W -0.23, M -0.076, Q -0.017, V 0.026, S -0.043, Y -0.085
K29: Q -0.003, W -0.085, S -0.04, C -0.142, H -0.002, R -0.021, G -0.048, D 0.007, E -0.105, M -0.04, T -0.012, N -0.109, A 0.016, F -0.167, L -0.072, V -0.095, P -0.076
A31: M 0.474, H -0.616, V 0.194, E -0.022, S -0.022, F -0.104, G 0.001, L -0.553
K25: H -0.128, G -0.051, F -0.112, D -0.087, T -0.105, S -0.033, P -0.058, A -0.065, M -0.018, W -0.083, C -0.022, R -0.051, V -0.035, N 0.084, Q -0.006, I -0.069, E -0.01
C40: Y -0.737, H -0.341, W -0.697, A -0.816, I -0.759, D -0.819, L -0.847, K -0.73, F -1.13, E -0.646, V -1.23, T -0.68, N -0.477, G -0.986, R -1, S -1.05
V32: I 0.019, K -0.004, Q -0.017, W -0.24, P -0.682, M 0.114, Y -0.1, E -0.004, A 0.023, F -0.013, D -0.035, R -0.095, H -0.158, N -0.08, G -0.228
Y38: K -0.026, M -0.117, P -0.038, N -0.098, S -0.049, D -0.041, W -0.047, F -0.027, G -0.164, I -0.069, L -0.054, Q -0.118, R -0.088, T -0.051, C -0.153, H -0.059, A -0.027, V 0.012
C24: L -0.581, Q -1, S -0.867, V -1.01, W -1.11, P -0.878, N -0.632, M -1.04, R -0.855
E33: S 0.008, K 0.044, C -0.107, I -0.124, A -0.28, H -0.077, P -0.128, V -0.01, Q -0.039, L -0.109, G 0.062, Y -0.088, M -0.049, F -0.137, D -0.043, W -0.099, N -0.089, T -0.051
R30: H 0.043, P 0.293, W -0.29, Y -0.121
H36: M -0.046, I -0.022, A 0.025, P -0.021, W -0.157, Y -0.043, D 0.005, Q -0.004, C -0.042, T -0.022, G -0.012, E -0.004, S 0.01, F -0.023, L -0.087, N 0.001, K -0.138
V26: N -0.123, Q 0.001, Y 0.005, K 0.008, L -0.049, W 0.009, E -0.022, C -0.1, H -0.03, M -0.058, I 0.031, A -0.044, R 0.033, D 0.024
G34: T -0.064, N 0.042, A -0.099, Q -0.043, I -0.103, K -0.104, M -0.098, C -0.151, W -0.165, L -0.131, E -0.013, F 0.071, H -0.078, R 0.032, V -0.102, S -0.074
F28: V -0.322, R -0.898, W 0.037, S -0.361, K -0.856, Y -0.095, N -0.647, E -0.749, P -1.21, D -0.782, G -0.647, C -0.364, H -0.445, A -0.263, Q -0.582, M -0.101
Q35: G -0.023, V -0.079, E 0.069, H -0.022, W -0.205, C -0.073, N -0.058, L -0.094, I -0.015, K 0.011, A -0.058, S -0.028, F -0.129, T -0.077, P -0.013, Y -0.112, D 0.056, R -0.002, M -0.121
G42: C -0.088, M 0.045, N -0.025, S 0.023, I -0.033, W -0.126, P -0.621, Q 0.032, D 0.051, Y -0.051, F -0.044, R -0.062, T -0.099, A 0.005, L -0.009, V 0.005
F27: H -0.427, R -1.15, D -0.676, Q -0.847, V -0.591, P -0.761, E -0.961, K -0.924, A -0.434, I -0.608, M -0.861, G -0.827, L -0.65, C -0.801, T -0.638, W -0.223, Y -0.33
L39: P -0.07, R -0.019, S -0.05, K -0.009, G -0.045, Y -0.054, I -0.043, F -0.027, M 0.016, Q -0.001, E -0.047, T -0.077, C 0.027, A -0.093, D 0.048, V -0.007
